Reference: publication PMC11194072, “Cdc13 exhibits dynamic DNA strand exchange in the presence of telomeric DNA”

Columns and labels:
Cdc13 full-length (Sf9) [1] = biological target: T1, Cdc13 full-length (Sf9) (Saccharomyces cerevisiae, UniProt P32797 1-924); experiment: EMSA; 2 nM fork; 25 mM HEPES pH 8.0, 5% glycerol, 50 mM NaOAc, 150 mM NaCl, 7.5 mM MgCl2, 0.01% Tween 20; EMSA/DDE at 30°C; BLI without glycerol at ~23°C; settings: protein: recombinant; tags: N-terminal SUMO-His6 tag, C-terminal FLAG tag; chain copies: 2; fork 1:2, 20 bp duplex, two 25-nt ssDNA arms
T1 sequence: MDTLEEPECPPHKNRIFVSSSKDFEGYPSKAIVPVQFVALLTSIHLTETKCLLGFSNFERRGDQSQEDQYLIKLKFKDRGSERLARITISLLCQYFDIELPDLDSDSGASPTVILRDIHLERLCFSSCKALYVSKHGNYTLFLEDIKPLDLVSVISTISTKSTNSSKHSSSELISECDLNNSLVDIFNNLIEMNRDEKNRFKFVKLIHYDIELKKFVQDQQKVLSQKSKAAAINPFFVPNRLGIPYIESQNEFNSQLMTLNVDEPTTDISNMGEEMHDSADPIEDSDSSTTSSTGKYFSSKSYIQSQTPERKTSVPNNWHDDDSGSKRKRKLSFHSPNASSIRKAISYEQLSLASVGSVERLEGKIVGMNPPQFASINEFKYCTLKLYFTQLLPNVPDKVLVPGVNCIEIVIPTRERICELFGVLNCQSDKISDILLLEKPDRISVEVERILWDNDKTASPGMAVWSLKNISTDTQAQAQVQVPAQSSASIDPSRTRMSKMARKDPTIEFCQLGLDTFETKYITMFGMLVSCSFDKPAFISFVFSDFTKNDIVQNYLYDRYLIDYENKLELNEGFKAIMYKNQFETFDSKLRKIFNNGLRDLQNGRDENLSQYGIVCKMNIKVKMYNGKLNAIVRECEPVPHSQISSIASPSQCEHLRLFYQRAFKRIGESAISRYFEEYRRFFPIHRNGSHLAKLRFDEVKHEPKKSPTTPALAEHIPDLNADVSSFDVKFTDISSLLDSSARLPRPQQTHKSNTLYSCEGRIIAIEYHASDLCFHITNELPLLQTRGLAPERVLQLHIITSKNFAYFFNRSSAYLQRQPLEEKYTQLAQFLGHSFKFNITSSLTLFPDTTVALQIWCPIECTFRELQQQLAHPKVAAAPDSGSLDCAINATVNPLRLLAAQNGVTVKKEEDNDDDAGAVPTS

[2] = biological target: T2, RPA heterotrimer (Rfa1-3) (Saccharomyces cerevisiae, UniProt P22336;P26754;P26755 1-621;1-273;1-122); experiment: as above; settings: protein: recombinant; tags: untagged; copies: 1;1;1; fork 1:2, 20 bp duplex, two 25-nt ssDNA arms
T2 sequence (P22336 whole entry, chain 1 of 3): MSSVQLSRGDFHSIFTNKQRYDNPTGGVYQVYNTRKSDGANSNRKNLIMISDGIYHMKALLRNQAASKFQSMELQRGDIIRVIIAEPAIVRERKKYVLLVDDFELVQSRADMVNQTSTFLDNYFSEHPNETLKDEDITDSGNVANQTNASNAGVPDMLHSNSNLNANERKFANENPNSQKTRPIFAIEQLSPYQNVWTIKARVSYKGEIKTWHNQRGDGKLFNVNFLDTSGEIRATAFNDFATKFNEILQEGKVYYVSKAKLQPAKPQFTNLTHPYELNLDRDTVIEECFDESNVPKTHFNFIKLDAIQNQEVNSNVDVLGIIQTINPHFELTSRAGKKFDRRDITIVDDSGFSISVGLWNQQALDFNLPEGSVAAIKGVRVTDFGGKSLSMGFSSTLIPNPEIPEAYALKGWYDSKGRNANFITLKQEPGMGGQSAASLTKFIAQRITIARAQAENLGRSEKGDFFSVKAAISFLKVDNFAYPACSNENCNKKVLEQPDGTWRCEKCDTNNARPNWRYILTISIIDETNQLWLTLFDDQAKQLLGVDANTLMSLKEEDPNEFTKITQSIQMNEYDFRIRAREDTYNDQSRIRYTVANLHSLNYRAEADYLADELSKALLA
T2 sequence (P26754 whole entry, chain 2 of 3): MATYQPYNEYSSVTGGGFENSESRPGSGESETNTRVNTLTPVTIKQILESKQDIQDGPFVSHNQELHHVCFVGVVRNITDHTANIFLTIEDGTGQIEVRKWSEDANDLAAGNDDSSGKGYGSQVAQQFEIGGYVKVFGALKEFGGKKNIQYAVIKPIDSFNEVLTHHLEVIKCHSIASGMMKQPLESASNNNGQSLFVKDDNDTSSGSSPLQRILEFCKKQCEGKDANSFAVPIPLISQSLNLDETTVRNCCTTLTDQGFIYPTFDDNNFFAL
T2 sequence (P26755 whole entry, chain 3 of 3): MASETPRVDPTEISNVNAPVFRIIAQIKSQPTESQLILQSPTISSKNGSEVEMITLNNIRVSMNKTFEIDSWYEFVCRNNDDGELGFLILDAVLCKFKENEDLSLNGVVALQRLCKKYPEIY

Cdc13 full-length (Sf9) [3] = biological target: T1, Cdc13 full-length (Sf9); experiment: EMSA; IR700-Tel50G prebound; 25 mM HEPES pH 8.0, 5% glycerol, 50 mM NaOAc, 150 mM NaCl, 7.5 mM MgCl2, 0.01% Tween 20; EMSA/DDE at 30°C; BLI without glycerol at ~23°C; settings: protein: recombinant; tags: N-terminal SUMO-His6 tag, C-terminal FLAG tag; chain copies: 2; label: 5' IRDye700; single strand
[4] = biological target: T2, RPA heterotrimer (Rfa1-3); experiment: competition; EC50; prebound labelled Poly(dT)30; 25 mM HEPES pH 8.0, 5% glycerol, 50 mM NaOAc, 150 mM NaCl, 7.5 mM MgCl2, 0.01% Tween 20; EMSA/DDE at 30°C; BLI without glycerol at ~23°C; settings: protein: recombinant; tags: untagged; copies: 1;1;1; single strand
[5] = biological target: T2, RPA heterotrimer (Rfa1-3); experiment: competition; EC50; prebound labelled Tel30G; 25 mM HEPES pH 8.0, 5% glycerol, 50 mM NaOAc, 150 mM NaCl, 7.5 mM MgCl2, 0.01% Tween 20; EMSA/DDE at 30°C; BLI without glycerol at ~23°C; settings: protein: recombinant; tags: untagged; copies: 1;1;1; single strand
Cdc13 full-length (Sf9) [6] = biological target: T1, Cdc13 full-length (Sf9); experiment: competition; EC50; prebound IR700-Tel30G 2 nM; 25 mM HEPES pH 8.0, 5% glycerol, 50 mM NaOAc, 150 mM NaCl, 7.5 mM MgCl2, 0.01% Tween 20; EMSA/DDE at 30°C; BLI without glycerol at ~23°C; settings: protein: recombinant; tags: N-terminal SUMO-His6 tag, C-terminal FLAG tag; chain copies: 2; single strand
Cdc13 OB3 (DBD) = biological target: T3, Cdc13 OB3 (DBD) (Saccharomyces cerevisiae, UniProt P32797 497-694); experiment: EMSA; 7.5 nM OB3, 2 nM IR700-Tel11G; complex stable to 0.4-50 nM unlabelled Tel11G; 25 mM HEPES pH 8.0, 5% glycerol, 50 mM NaOAc, 150 mM NaCl, 7.5 mM MgCl2, 0.01% Tween 20; EMSA/DDE at 30°C; BLI without glycerol at ~23°C; settings: protein: recombinant; tags: N-terminal His6; label: none, or 5' IRDye700; single strand
T3 sequence: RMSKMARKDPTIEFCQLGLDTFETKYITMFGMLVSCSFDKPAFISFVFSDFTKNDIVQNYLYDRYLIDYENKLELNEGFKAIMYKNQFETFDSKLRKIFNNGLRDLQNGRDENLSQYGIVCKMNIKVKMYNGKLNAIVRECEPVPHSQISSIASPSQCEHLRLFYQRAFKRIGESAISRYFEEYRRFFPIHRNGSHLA

Cdc13 full-length (Sf9) [7] = biological target: T1, Cdc13 full-length (Sf9); experiment: competition; prebound IR700-Tel11G, unlabelled Tel11G competes; EC50 only in figure; 25 mM HEPES pH 8.0, 5% glycerol, 50 mM NaOAc, 150 mM NaCl, 7.5 mM MgCl2, 0.01% Tween 20; EMSA/DDE at 30°C; BLI without glycerol at ~23°C; settings: protein: recombinant; tags: N-terminal SUMO-His6 tag, C-terminal FLAG tag; chain copies: 2; label: none, or 5' IRDye700; single strand
[8] = biological target: T4, Cdc13 full-length (E. coli) (Saccharomyces cerevisiae, UniProt P32797 1-924); experiment: as above; settings: protein: recombinant; tags: N-terminal His6-SUMO, C-terminal 3xFLAG; chain copies: 2; label: none, or 5' IRDye700; single strand
T4 sequence: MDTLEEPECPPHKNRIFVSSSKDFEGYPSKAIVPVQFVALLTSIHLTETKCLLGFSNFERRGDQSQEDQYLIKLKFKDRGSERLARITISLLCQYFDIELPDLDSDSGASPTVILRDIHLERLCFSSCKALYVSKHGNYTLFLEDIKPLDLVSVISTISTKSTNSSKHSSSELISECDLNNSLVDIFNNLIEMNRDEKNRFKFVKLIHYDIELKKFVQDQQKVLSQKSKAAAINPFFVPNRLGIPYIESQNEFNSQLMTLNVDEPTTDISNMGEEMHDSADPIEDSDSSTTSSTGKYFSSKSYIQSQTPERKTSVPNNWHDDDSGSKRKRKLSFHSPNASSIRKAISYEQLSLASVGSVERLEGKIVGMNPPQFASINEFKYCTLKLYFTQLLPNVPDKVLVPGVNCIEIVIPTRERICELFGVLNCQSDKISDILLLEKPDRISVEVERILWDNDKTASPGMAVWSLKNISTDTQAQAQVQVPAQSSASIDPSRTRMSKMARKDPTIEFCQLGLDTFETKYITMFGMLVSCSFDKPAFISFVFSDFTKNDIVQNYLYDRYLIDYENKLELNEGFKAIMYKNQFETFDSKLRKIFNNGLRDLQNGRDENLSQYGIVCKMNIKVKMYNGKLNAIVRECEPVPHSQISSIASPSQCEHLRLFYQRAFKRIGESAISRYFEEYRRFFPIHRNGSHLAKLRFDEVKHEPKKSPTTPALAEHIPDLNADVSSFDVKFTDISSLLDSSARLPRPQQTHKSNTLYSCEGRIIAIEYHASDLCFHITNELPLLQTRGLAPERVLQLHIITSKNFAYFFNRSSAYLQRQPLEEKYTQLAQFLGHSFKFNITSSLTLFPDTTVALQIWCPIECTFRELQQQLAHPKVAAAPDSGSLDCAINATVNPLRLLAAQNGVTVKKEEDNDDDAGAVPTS

[9] = biological target: T2, RPA heterotrimer (Rfa1-3); experiment: EMSA; 2 nM probe; 25 mM HEPES pH 8.0, 5% glycerol, 50 mM NaOAc, 150 mM NaCl, 7.5 mM MgCl2, 0.01% Tween 20; EMSA/DDE at 30°C; BLI without glycerol at ~23°C; settings: protein: recombinant, tags: untagged, copies: 1;1;1, single strand
Cdc13 OB1 = biological target: T5, Cdc13 OB1 (Saccharomyces cerevisiae, UniProt P32797 1-230); experiment: EMSA; 7.8-1000 nM OB1; 25 mM HEPES pH 8.0, 5% glycerol, 50 mM NaOAc, 150 mM NaCl, 7.5 mM MgCl2, 0.01% Tween 20; EMSA/DDE at 30°C; BLI without glycerol at ~23°C; settings: protein: recombinant; tags: N-terminal His6-SUMO, C-terminal 3xFLAG; chain copies: 2; label: 5' IRDye700 or IRDye800; single strand
T5 sequence: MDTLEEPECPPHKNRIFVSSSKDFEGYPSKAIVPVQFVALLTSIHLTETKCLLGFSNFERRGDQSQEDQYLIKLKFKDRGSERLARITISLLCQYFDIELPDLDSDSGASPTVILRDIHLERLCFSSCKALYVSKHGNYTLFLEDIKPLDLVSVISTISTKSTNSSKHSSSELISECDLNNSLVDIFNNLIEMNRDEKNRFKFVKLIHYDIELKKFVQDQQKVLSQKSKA

Cdc13 full-length (Sf9) [10] = biological target: T1, Cdc13 full-length (Sf9); experiment: EMSA; 2 nM probe; near probe concentration, not a reliable Kd; 25 mM HEPES pH 8.0, 5% glycerol, 50 mM NaOAc, 150 mM NaCl, 7.5 mM MgCl2, 0.01% Tween 20; EMSA/DDE at 30°C; BLI without glycerol at ~23°C; settings: protein: recombinant; tags: N-terminal SUMO-His6 tag, C-terminal FLAG tag; chain copies: 2; label: 5' IRDye700 or IRDye800; single strand
[11] = biological target: T2, RPA heterotrimer (Rfa1-3); experiment: competition; EC50; prebound labelled Poly(dT)30; text also gives 15 nM; 25 mM HEPES pH 8.0, 5% glycerol, 50 mM NaOAc, 150 mM NaCl, 7.5 mM MgCl2, 0.01% Tween 20; EMSA/DDE at 30°C; BLI without glycerol at ~23°C; settings: protein: recombinant; tags: untagged; copies: 1;1;1; label: none, or 5' IRDye700/800; single strand
Cdc13 full-length (Sf9) [12] = biological target: T1, Cdc13 full-length (Sf9); experiment: EMSA; 2 nM probe; 25 mM HEPES pH 8.0, 5% glycerol, 50 mM NaOAc, 150 mM NaCl, 7.5 mM MgCl2, 0.01% Tween 20; EMSA/DDE at 30°C; BLI without glycerol at ~23°C; settings: protein: recombinant; tags: N-terminal SUMO-His6 tag, C-terminal FLAG tag; chain copies: 2; label: none, or 5' IRDye700/800; single strand

B1: Tel25G fork (MB1169/MB1170) (mixed)
DNA 1: GGTGTGGTGTGGGTGTGGTGTGGGTGTGTCACTCACATAGCGTTC
DNA 2: GAACGCTATGTGAGTGACACTGGGTGTGGTGTGGGTGTGGTGTGG
apparent K (half saturation) (Cdc13 full-length (Sf9) [1]): 3.3 ± 0.5 nM | apparent K (half saturation) [2]: 2.5 ± 0.6 nM

GTGTGGGTGTGGTGTGGGTGTGGTGTGGGTGTGTGGTGTGGTGTGTGTG (ssDNA) [IR700-Tel50G (MB1931)]
binding result (Cdc13 full-length (Sf9) [3]): binds

GTGTGGGTGTGGTGTGGGTGTGGTGTGGGT (ssDNA) [Tel30G unlabelled (MB915)]
IC50 [4]: 5.1 nM | IC50 [5]: 5.44 nM | IC50 (Cdc13 full-length (Sf9) [6]): 0.89 nM

GTGTGGGTGTG (ssDNA) [Tel11G (MB1983 / MB2018 IR700)]
binding result (Cdc13 OB3 (DBD)): binds | binding result (Cdc13 full-length (Sf9) [7]): binds | binding result [8]: binds

GTGTGGGTGTGGTGTGGGTGTGGTGTGGGTGTGTGGGTGTGGTGTGGGTG (ssDNA) [Tel50G unlabelled (MB1117)]
IC50 (Cdc13 full-length (Sf9) [6]): 0.96 nM

CGCCATGCTGATCCGTGTGGTGTGTGTGGG (ssDNA) [Tel30G labelled (MB1930 IR700 / MB1981 IR800)]
apparent K (half saturation) ([9]; label: 5' IRDye700 or IRDye800): 2.4 ± 0.5 nM | apparent K (half saturation) (Cdc13 OB1): 830 nM | apparent K (half saturation) (Cdc13 full-length (Sf9) [10]): 3.7 ± 0.3 nM

TTTTTTTTTTTTTTTTTTTTTTTTTTTTTT (ssDNA) [Poly(dT)30 (MB464 / MB1755 IR700 / MB1982 IR800)]
IC50 [11]: 15.1 nM | apparent K (half saturation) (Cdc13 full-length (Sf9) [12]): 26 ± 3 nM | apparent K (half saturation) ([9]; label: none, or 5' IRDye700/800): 7 ± 0.5 nM
